We go through one molecule from patent publication US20230049152A1 (Genentech, published 2023).

In one assay the target is T1, S23A.
T1 construct: single alanine mutant of hCCR8; also called hCCR8 S23A
T1 receptor chain: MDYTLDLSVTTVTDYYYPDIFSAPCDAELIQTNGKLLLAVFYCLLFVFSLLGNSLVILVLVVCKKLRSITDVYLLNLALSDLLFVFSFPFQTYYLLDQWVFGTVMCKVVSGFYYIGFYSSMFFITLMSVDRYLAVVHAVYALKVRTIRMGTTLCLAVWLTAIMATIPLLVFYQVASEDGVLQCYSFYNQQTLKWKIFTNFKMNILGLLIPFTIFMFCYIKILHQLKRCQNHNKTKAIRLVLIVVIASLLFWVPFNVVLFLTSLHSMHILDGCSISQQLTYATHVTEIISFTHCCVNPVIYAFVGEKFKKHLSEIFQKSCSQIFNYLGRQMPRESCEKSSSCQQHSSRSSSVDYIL
Briefly: flow cytometry, HEK293 transfected with hCCR8 S23A with C-terminal FLAG; sheet prints [huCCR8]=0.02 ug/ml. On the procedure:
(§1) FIGS. 16A-16B depict the epitope maps for hu.Ab5.H13L1 (FIG. 16A) and hu.Ab4.H12L3 (FIG. 16B) mAbs.
(§2) To epitope map fucosylated hu.Ab5.H13L1, the binding to alanine point mutations in human CCR8 was analyzed by flow cytometry.
(In general: A flow cytometer gives signals particle by particle.)

Another assay deals with T2, T10A.
T2 construct: single alanine mutant of hCCR8; also called hCCR8 T10A
T2 receptor chain: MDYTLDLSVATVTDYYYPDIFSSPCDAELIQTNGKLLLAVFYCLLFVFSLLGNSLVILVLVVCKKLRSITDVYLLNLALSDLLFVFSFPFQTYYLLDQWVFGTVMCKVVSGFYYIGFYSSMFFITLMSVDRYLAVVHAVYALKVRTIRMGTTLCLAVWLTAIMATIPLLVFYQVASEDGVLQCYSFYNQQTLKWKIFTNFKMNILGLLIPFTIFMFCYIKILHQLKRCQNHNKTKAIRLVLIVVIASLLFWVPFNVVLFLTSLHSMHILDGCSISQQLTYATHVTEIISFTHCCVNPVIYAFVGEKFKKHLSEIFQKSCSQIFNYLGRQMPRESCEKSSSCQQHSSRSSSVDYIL
Briefly: flow cytometry, HEK293 transfected with hCCR8 T10A with C-terminal FLAG; sheet prints [huCCR8]=0.02 ug/ml.

Assay [1] addresses T3, CCR8 with C-terminal FLAG.
T3 construct: expressed on transfected HEK293 cells; also called hCCR8 with a C-terminal FLAG tag
Briefly: flow cytometry, HEK293 transfected with CCR8 with C-terminal FLAG.

The next assay concerns the target T4, L7A.
T4 construct: single alanine mutant of hCCR8; also called hCCR8 L7A
T4 receptor chain: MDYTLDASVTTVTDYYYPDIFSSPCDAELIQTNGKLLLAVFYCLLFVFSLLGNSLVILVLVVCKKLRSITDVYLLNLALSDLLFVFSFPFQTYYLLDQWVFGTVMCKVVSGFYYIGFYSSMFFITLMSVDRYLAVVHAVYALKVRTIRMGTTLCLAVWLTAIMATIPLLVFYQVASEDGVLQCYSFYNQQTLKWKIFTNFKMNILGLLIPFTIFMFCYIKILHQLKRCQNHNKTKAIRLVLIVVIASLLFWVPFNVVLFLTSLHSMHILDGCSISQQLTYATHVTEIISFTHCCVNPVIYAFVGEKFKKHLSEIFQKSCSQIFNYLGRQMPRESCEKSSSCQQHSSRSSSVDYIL
Briefly: flow cytometry, HEK293 transfected with hCCR8 L7A with C-terminal FLAG; sheet prints [huCCR8]=0.02 ug/ml.

Another assay concerns the target T5, I20A.
T5 construct: single alanine mutant of hCCR8; also called hCCR8 I20A
T5 receptor chain: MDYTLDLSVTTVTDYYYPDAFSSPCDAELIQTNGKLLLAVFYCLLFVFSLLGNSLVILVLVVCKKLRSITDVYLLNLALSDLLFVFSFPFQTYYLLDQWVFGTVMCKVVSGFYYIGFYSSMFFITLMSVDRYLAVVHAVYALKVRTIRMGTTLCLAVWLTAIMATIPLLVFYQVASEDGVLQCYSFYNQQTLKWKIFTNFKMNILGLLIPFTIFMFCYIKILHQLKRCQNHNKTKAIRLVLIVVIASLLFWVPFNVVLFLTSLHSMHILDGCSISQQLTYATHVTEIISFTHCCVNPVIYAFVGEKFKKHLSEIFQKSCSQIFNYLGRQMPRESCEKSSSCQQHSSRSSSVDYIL
Briefly: flow cytometry, HEK293 transfected with hCCR8 I20A with C-terminal FLAG; sheet prints [huCCR8]=0.02 ug/ml.

For another assay, the target named is T6, D14A.
T6 construct: single alanine mutant of hCCR8; also called hCCR8 D14A
T6 receptor chain: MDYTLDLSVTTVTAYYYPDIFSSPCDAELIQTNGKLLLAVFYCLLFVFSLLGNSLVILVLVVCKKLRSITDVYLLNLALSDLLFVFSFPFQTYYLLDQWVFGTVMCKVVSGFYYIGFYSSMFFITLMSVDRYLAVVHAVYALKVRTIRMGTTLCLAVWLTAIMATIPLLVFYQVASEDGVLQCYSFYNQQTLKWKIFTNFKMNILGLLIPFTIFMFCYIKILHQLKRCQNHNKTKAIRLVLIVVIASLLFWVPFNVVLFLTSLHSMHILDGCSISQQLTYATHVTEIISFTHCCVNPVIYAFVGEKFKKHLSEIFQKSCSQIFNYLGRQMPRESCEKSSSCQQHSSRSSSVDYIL
Briefly: flow cytometry, HEK293 transfected with hCCR8 D14A with C-terminal FLAG; sheet prints [huCCR8]=0.02 ug/ml.

The target in a further assay is T7, hCCR8 D6A (human, UniProt P51685 1-355).
T7 construct: alanine point mutant on transfected HEK 293 cells
Briefly: flow cytometry, HEK293 transfected with hCCR8 D6A with C-terminal FLAG.

A further assay has as its target T8, T4A.
T8 construct: single alanine mutant of hCCR8; also called hCCR8 T4A
T8 receptor chain: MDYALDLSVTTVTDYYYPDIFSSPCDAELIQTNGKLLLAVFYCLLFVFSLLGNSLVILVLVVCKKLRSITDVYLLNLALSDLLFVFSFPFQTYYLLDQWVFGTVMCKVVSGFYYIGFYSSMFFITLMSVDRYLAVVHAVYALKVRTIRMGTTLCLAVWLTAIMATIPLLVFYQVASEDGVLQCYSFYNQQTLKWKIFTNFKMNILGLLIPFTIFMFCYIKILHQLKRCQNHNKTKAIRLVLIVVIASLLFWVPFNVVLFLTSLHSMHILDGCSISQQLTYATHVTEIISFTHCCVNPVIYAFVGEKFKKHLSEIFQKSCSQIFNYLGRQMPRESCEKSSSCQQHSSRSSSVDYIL
Briefly: flow cytometry, HEK293 transfected with hCCR8 T4A with C-terminal FLAG; sheet prints [huCCR8]=0.02 ug/ml. On the procedure: as §1, §2

B1: hu.Ab5.H13L1 (antibody, human IgG1, kappa)
heavy: not shown
light: DIQVTQSPSSLSASVGDRVTITCQASENIANALAWYQQKPGKPPKFLIYGASNLASGVPSRFSGSGSGTDFTFTISSLQPEDIATYYCQQAYYGNSFVEGTFGGGTKVEIKRTVAAPSVFIFPPSDEQLKSGTASVVCLLNNFYPREAKVQWKVDNALQSGNSQESVTEQDSKDSTYSLSSTLTLSKADYEKHKVYACEVTHQGLSSPVTKSFNRGEC
notes: fucosylated human IgG1; also called Ab5 variant
As for B1, the binding result (with S23A; in the assay with T10A; in assay [1]; with L7A; with I20A; with D14A) was “binds” throughout. Also, the results for the binding result with hCCR8 D6A and with T4A were “no binding (tested: 0.02 ug/ml)” and “binds”, respectively.
